For this assay, the target named is T1, conjugate of a peptide consisting of an amino acid sequence represented by SEQ ID NO:1 (SSVLYGGPPSAA) and KLH (also: conjugated to KLH with glutaraldehyde, site and number per carrier not given here).
T1 construct: Synthetic peptide (Fmoc solid phase) cross-linked to KLH by glutaraldehyde; also called antigenic substance; antigen
T1 peptide: SSVLYGGPPSAA
As to the kind of experiment: ELISA of hybridoma culture supernatant on plate coated with the peptide-KLH conjugate, fluorescence read-out. The protocol:
A buffer solution containing the above-mentioned antigenic substance (5 mg) (Baicarbonate buffer: 100 mM NaHCO₃—NaOH, pH 9.2 to 9.5, the concentration of the peptide: 1 μg/mL) was added to a 96 well flat bottom plate in an amount of 50 μL per well, and allowed to stand for coating at room temperature for 2 hours. The plate was washed 3 times with wash buffer (PBST), and then blocking buffer (3% skim milk 1% BSA, PBS) was added in an amount of 200 to 250 μL/well to react at 4° C. for one full day, and then washed 3 times. Then the culture supernatant of hybridoma was added in an amount of 100 μL/well, which was allowed to react at 37° C. for 4 hours or at 4° C. for one full day. After the plate was washed 3 times, biotin-labeled anti-mouse IgG (SIGMA) diluted 10000 times with dilution buffer (10 mM Tris-HCl (pH 8.0), 0.9% (W/V) NaCl, 0.05% (W/V) Tween 20) was added in an amount of 50 μL/well, which was allowed to react at room temperature for 2 hours. […] Then washing was performed 6 times, and fluorescent substrate buffer (Attophos substrate buffer, Roche Diagnostics K.K.) was added in an amount of 50 μL/well, and the plate was shaded to allow fluorescence to develop. Fluorescence intensity was measured in CytoFluorII (PerSeptive Biosystems).

Ends that are not written are not given here.

B1: monoclonal antibody (SSVmAb) of Example 1, produced by hybridoma Mouse-Mouse hybridoma SSV-C 93-3 (NITE BP-972) (antibody, IgG1, V domains shown)
VH: EIQLQQSGAELVKPGASVKISCKASGYSFTGYNMNWVKQSHGKSLEWIGNINPYYGSTSYNQKFKGKATLTVDKSSSTAYMQLNSLTSEDSAVYYCARSPYYSNYWRYFDYWGQGTTLTVSS
VL: QIVLSQSPAILSASPGEKVTMTCRASSSVSYMHWYQQKPGSSPKPWIYATSNLASGVPARFSGSGSGTSYSLTISRVEAEDAATYYCQQWSSNPWTFGGGTKLEIK
notes: Mouse hybridoma antibody
On to B1, for which the binding result is “binds”.

These data come from US20150079090A1 (JOSAI UNIVERSITY, published 2015).
